Substitutions are numbered along the chain they refer to. In names and notes the source's numbering stands. Several values for one entry are separate records, joined by “and”; a condition that tells them apart may be missing. Identical values can stand only once. Entries after “also recorded” stand apart in the source; their conditions may differ. Like-named read-outs stand apart in the source and are kept apart here.
Columns and labels:
[1] = ITC; for Kd: read-out: KD value, binding with stearoyl-CoA, presence of potassium ion (+K+, 200 mM KCl), N.D. = not detected; for binding of AAR mutant with stearoyl-CoA (in words): +K+
Procedure: (§1) The binding affinity of AAR with ADO or stearoyl-CoA was measured by isotheral titration calorimetry (ITC) using a MicroCal Auto-ITC200 microcalorimeter (GE Healthcare Bio-sciences, Pittsburgh, PA). […] Wild type or mutants of ADO (or AAR) were placed into the sample cell (200 µL working volume) at a final concentration of 30 µM (60 µM for AAR) and was titrated with successive 2-µL injections of AAR protein with concentration of 500 µM (or ADO protein with concentration of 1 mM). Titrating AAR (500 µM) or ADO (1 mM) into the same buffer was performed as a control to determine the background correction. […] Injection of stearyol-CoA into the reaction buffer was performed as control to determine background correction.

[2] = Enzymatic activity assay of AAR toward stearoyl-CoA (octadecanal by GC-MS); format: biochemical, Synechococcus elongatus PCC 7942
From the text: PCC 6803 and Synechocystis sp. […] The extraction step was repeated for three times.

[3] = for heptadecane product yield of wild-type ADO compared with triple mutant E196A/E200A/D201A of ADO: both incubated with AAR
Procedure: For measuring the enzymatic activity of AAR, the AAR protein at the concentration of 20 µM was mixed with 2 mM NADPH and 0.5 mM stearoyl-CoA in a 100 µL reaction buffer containing 20 mM HEPES pH 7.5, 200 mM KCl, 0.5 mM MgCl2, and 0.5 mM TCEP. […] The ferrodoxin and FNR are recombinant proteins from cyanobacterial strains Synechocystis sp. […] PCC 7942, respectively, and were added into the reaction buffer for supplying electrons for the reduction of ADO. The mixture was incubated at 30 °C for 5 h. The produced octadecanal and heptadecane were extracted by addition of an equal volume of ethyl acetate (Sigma Aldrich, HPLC grade) and centrifuged at 13,000 × g for 15 min at room temperature. The extraction step was repeated for three times. The extracted supernatant was pooled together, dried with nitrogen gas, and then resolved in 20 µL ethyl acetate for the GC-MS measurement.
The concentration of octadecanal and heptadecane was measured using an Agilent 7890 A gas chromatograph coupled with an Agilent 7000B QQQ mass spectrometer. A total of 2 µL sample was loaded with the helium as the carrier gas onto the chromatographic column HP-5ms (30 mM × 0.25 mM ID, 0.25 μm; Agilent) at the flow rate of 1.3 ml min^−1. The injector temperature maintained at 300 °C with spotless mode. The GC oven settings were as follows: initial temperature 75 °C, held for 5 min, then at 40 °C min^−1, increased to 325 °C and held for 5 min. Ionization mode of EI (70 eV, 230 °C) and full scan of 50–550 m/z were chosen for MS detection. The standard curve was plotted based on the measuring of the commercial octadecanal and heptadecane (Sigma Aldrich) at a gradient concentration (from 3.125 to 75 µg mL^−1). Data were acquired and processed using MassHunter Workstation Software and the NIST database.

[4] = molecular target: T1, aldehyde-deformylating oxygenase from Synechococcus elongatus PCC 7942, wild type, His-tag removed (Synechococcus elongatus PCC 7942, UniProt Q54764 1-231); assay: ITC
T1 chain: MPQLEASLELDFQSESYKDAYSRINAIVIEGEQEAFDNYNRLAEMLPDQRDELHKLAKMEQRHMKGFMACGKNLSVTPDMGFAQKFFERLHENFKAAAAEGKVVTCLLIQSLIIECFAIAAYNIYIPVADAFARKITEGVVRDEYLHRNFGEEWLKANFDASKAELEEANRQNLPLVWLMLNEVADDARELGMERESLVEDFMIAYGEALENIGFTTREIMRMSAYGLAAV

ADO = molecular target: T2, ADO (Synechococcus elongatus, UniProt Q54764); assay: ITC binding of AAR (wild type and mutants) with ADO; set-up: species or system Synechococcus elongatus PCC 7942
T2 construct: His6-tag peptide (C, cleaved yes); made in house; host or cells: E. coli BL21(DE3), without chaperone plasmid
T2 sequence (Q54764 1-231): T1 chain
Procedure: as §1

[5] = molecular target: T3, acyl-acyl carrier protein (acyl-ACP) reductase from Synechococcus elongatus PCC 7942, wild type, His-tag … (Synechococcus elongatus PCC 7942, UniProt Q54765 1-341); assay: ITC; ADO (wild type or mutant) in the sample cell at 30 µM, titrated with 2-µL injections of 500 µM AAR; 25 mM Tris-HCl pH 7.5, 1 mM TCEP; settings: both partners purified
T3 construct: acyl-ACP reductase (AAR), Synechococcus elongatus PCC 7942, gene Synpcc7942_1594; complete protein of 341 residues; after TEV cleavage ENLYFQ probably stays at the C-terminus (surmised); also called AAR; SeAAR; not shown: His6, C-terminal, cleaved
T3 sequence (looked up): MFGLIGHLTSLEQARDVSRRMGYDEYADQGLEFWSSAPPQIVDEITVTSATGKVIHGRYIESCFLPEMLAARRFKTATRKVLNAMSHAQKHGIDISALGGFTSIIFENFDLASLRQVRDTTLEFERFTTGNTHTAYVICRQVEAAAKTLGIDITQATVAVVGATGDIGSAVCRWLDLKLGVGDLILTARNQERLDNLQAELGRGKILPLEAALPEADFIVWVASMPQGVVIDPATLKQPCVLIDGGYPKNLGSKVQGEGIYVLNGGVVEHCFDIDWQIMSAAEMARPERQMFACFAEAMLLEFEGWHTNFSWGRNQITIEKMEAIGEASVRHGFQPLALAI

AAR = molecular target: T4, AAR (Synechococcus elongatus, UniProt Q54765); assay: ITC binding of ADO (wild type and mutants) with AAR; set-up: species or system Synechococcus elongatus PCC 7942
T4 construct: modeled the complete AAR protein containing 341 amino acid residues; 22-residue C-terminal peptide with His6 (G + […]) (C, cleaved yes); made in house; host or cells: E. coli BL21(DE3) co-transformed with chaperone plasmid pG-KJE8
T4 sequence (Q54765 1-341): T3 sequence (looked up)
Procedure: as §1

## AAR wild type: acyl-acyl carrier protein reductase from Synechococcus elongatus PCC 7942, wild type recombinant protein
[1]
  binding between AAR and stearoyl-CoA for AAR incubated with NADPH (in words): not significantly affected by NADPH
[1]; listed as AAR
  Kd: 0.09 µM
[1]; listed as apo-AAR
  Kd: ~0.09 µM
[2]
  Octadecanal yield, single data (data1-data3): 5.8 and 7.04 and 5.2

## ADO wild type: aldehyde-deformylating oxygenase from Synechococcus elongatus PCC 7942, wild type recombinant protein
[3]; listed as wild type ADO
  heptadecane product yield of wild-type ADO compared with triple mutant E196A/E200A/D201A of ADO: more than twice
[3]; listed as wild-type ADO
  heptadecane product yield of wild-type ADO compared with triple mutant E196A/E200A/D201A of ADO: two times more product

B1: acyl-acyl carrier protein (acyl-ACP) reductase from Synechococcus elongatus PCC 7942, wild type, His-tag removed (enzyme)
chain: T3 sequence (looked up)
[4]
  Ka: 496000 M⁻¹

B2: AAR R73A (protein)
chain: T3 sequence (looked up) with R73A
modifications: left off: His6, C-terminal, cleaved
ADO
  binding of AAR mutant with ADO (in words): abolish the binding capability with ADO

B3: AAR Y247F: AAR single mutant Y247F (protein)
chain: T3 sequence (looked up) with Y247F
modifications: left off: His6, C-terminal, cleaved
[1]
  binding of AAR mutant with stearoyl-CoA (in words): decreased binding affinity
[1]; listed as Y247F mutant
  binding of AAR mutant with stearoyl-CoA (in words): reduced binding affinity with stearoyl-CoA
ADO
  binding of AAR mutant with ADO (in words): almost the same as that of AAR wild type
[2]
  Octadecanal yield: 61.1 ± 6.76 µg/mL
[2]; source data of Table 3, +K+
  Octadecanal yield, EVERAGE: 61.0928
  Octadecanal yield, single data (data1-data4): 68.55 and 59.38 and 55.3483

B4: AAR R79A (protein)
chain: T3 sequence (looked up) with R79A
modifications: left off: His6, C-terminal, cleaved
ADO
  binding of AAR mutant with ADO (in words): abolish the binding capability with ADO

B5: AAR K80A (protein)
chain: T3 sequence (looked up) with K80A
modifications: left off: His6, C-terminal, cleaved
ADO
  binding of AAR mutant with ADO (in words): abolish the binding capability with ADO

B6: aldehyde-deformylating oxygenase from Synechococcus elongatus PCC 7942, D201A mutant (enzyme, UniProt Q54764 1-231, looked up)
chain: T1 chain with D201A
notes: aldehyde-deformylating oxygenase (ADO), Synechococcus elongatus PCC 7942, gene Synpcc7942_1593; Made by PCR on pET24a-ADO; also called ADO D201A; source: E. coli BL21(DE3), purified (same protocol as wild-type ADO); not shown: His6, C-terminal, cleaved
[5]
  Kd: 4.9 ± 1.4 µM

B7: ADO E196A (protein)
chain: T1 chain with E196A
modifications: left off: His6, C-terminal, cleaved
AAR
  binding of ADO mutant with AAR (in words): significantly reduced binding affinity with AAR

B8: ADO E200A/D201A (protein)
chain: T1 chain with E200A, D201A
modifications: left off: His6, C-terminal, cleaved
AAR
  binding of ADO mutant with AAR (in words): completely lose their capability to bind AAR; also recorded: completely abolished the capability of ADO to bind with AAR

B9: ADO E200A (protein)
chain: T1 chain with E200A
modifications: left off: His6, C-terminal, cleaved
AAR
  binding of ADO mutant with AAR (in words): significantly reduced binding affinity with AAR

B10: ADO E196A/E200A/D201A (protein)
chain: T1 chain with E196A, E200A, D201A
modifications: left off: His6, C-terminal, cleaved
AAR
  binding of ADO mutant with AAR (in words): completely lose their capability to bind AAR; also recorded: completely abolished the capability of ADO to bind with AAR
[3]; AAR incubated with wild type or triple mutant ADO
  yield of octadecanal compared with the wild type ADO reaction system (in words): similar

B11: aldehyde-deformylating oxygenase from Synechococcus elongatus PCC 7942, E211A mutant (enzyme, UniProt Q54764 1-231, looked up)
chain: T1 chain with E211A
notes: aldehyde-deformylating oxygenase (ADO), Synechococcus elongatus PCC 7942, gene Synpcc7942_1593; Made by PCR on pET24a-ADO; also called ADO E211A; source: E. coli BL21(DE3), purified (same protocol as wild-type ADO); not shown: His6, C-terminal, cleaved
[5]
  Kd: 2.8 ± 0.85 µM

B12: aldehyde-deformylating oxygenase from Synechococcus elongatus PCC 7942, E208A mutant (enzyme, UniProt Q54764 1-231, looked up)
chain: T1 chain with E208A
notes: aldehyde-deformylating oxygenase (ADO), Synechococcus elongatus PCC 7942, gene Synpcc7942_1593; Made by PCR on pET24a-ADO; also called ADO E208A; source: E. coli BL21(DE3), purified (same protocol as wild-type ADO); not shown: His6, C-terminal, cleaved
[5]
  Kd: 14.8 ± 3.7 µM

Source: PMC7089970, “Structural insights into catalytic mechanism and product delivery of cyanobacterial acyl-acyl carrier protein reductase” (Nature Communications, 2020)
